Measured values published in patent publication US20140056918A1 (Novo Nordisk, published 2014).

Columns and labels:
[1] = target: T1, Human OSCAR-ECD (recombinant extracellular domain of human OSCAR) (human, UniProt Q8IYS5 19-218); assay: SPR competition, 50 nM OSCAR-ECD premixed with mAb, over immobilised collagen I
T1 construct: also called OSACAR-ECD
T1 chain: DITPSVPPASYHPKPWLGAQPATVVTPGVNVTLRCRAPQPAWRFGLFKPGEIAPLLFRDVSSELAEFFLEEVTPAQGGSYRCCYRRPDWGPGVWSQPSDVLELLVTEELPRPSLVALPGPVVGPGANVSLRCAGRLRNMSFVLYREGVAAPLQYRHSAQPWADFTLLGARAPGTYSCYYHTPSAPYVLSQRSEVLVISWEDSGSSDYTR
Description: (§1) The experiment was performed using a Biacore T 100 instrument (GE Healthcare). Human collagen 1 (Sigma, # C5483) and human collagen 2 (Millipore #CC052) were diluted with 10 mM NaOAc, pH 4.5 and immobilized on a Biacore CM3 sensor chip (GE Healthcare) using amine coupling chemistry (GE Healthcare). Immobilization was performed according to the standard procedure, but at 5° C. in order to prevent aggregation collagens, with immobilized levels of ca 250 RU on flow cells (FC) 2 and 4. A blank immobilization was performed on FC 1 & 3, which were used as reference cells. HBS-EP buffer (10 mM HEPES, 150 mM NaCl, 3 mM EDTA, 0.05% Polysorbat P20, pH7.4) was used as running buffer for the immobilization. Buffer containing HBS-EP/+0.1% BSA was used for the competition assay. The competition experiment was performed at 5° C. at a flow rate of 50 μl/min. […] OSCAR was mixed with various concentrations of anti-OSCAR antibodies ranging from 0-10 μg/ml prior to injection. Binding curves were measured for 360 s followed by 240 s of dissociation. The chip surface was regenerated for 2×20 s with 10 mM glycine, pH 2.0 between assays.
(§2) Human collagen I and II were immobilized to the surface of a Biacore sensor chip by amine coupling. […] It was hypothesized that an antibody inhibiting binding of OSCAR to collagen would lead to a concentration-dependent loss of signal, whereas a non-inhibiting antibody would enhance the signal due to the increased mass of the OSCAR-antibody complex.

[2] = target: T1, Human OSCAR-ECD (recombinant …); assay: SPR competition, 50 nM OSCAR-ECD premixed with mAb, over immobilised collagen II; design: unit not given here
Description: as §1, §2

[3] = target: T2, Human OSCAR (osteoclast-associated receptor), full length, on cells (human); assay: cell-based or functional assay
T2 chain: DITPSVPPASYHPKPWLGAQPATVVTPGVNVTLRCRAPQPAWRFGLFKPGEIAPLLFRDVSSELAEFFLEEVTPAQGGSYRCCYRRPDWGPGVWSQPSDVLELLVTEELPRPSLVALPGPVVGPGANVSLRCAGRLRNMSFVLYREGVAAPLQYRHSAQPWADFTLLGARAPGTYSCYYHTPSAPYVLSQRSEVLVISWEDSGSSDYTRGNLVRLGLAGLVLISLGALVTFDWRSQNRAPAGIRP

[4] = target: T1, Human OSCAR-ECD (recombinant …); assay: SPR (Biacore T100), mAb coupled or captured on chip, OSCAR-ECD injected, 1:1 fit
Description: The kinetic parameters (kₐ, kd and KD) for the interaction were calculated using a 1:1 interaction Langmuir fitting model.

B1: 6F6B (antibody, V domains shown)
VH: EVQLQQSGAELVKPGASVKLSCTASGFNIKDTYVHWVKQRPDQGLEWIGRIDPAIGNTKYDPKFRGKATITADSSSNTAYLQLSSLTSEDTAVYYCARLSYGNYGLDYSMDYWGQGTSVTVSS
VL: DIVLTQSPATLSVTPGDSVSLSCRASQSITNNLHWYQQKSHESPRLLIKYASQSISGIPSRFRGSGSGTDFTLSINSVETEDFGVYFCQQSNTWPRTFGGGTKLEIKR
notes: Mouse anti-OSCAR mAb
**Q.** With B1 as the binder, how does the “binding of OSCAR-ECD to collagen I with 10 µg/mL mAb” value [1] read?
**A.** 1.7

**Q.** And the “binding of OSCAR-ECD to collagen II with 10 µg/mL mAb” value (“binding of OSCAR-ECD to collagen II” for short) [2]?
**A.** 1

**Q.** And the “IC50 (IL-8), ColI-induced IL-8 release from moDC, Donor 4” value (“IC50 … Donor 4” below) [3]?
**A.** 0.86 nM

**Q.** What about the “IC50 (IL-8), ColI-induced IL-8 release from moDC, Donor 5” value (“IC50 … Donor 5” below) [3] of the same binder?
**A.** > 20 nM

**Q.** What about the “IC50 (IL-8), ColI-induced IL-8 release from moDC, Donor 6” value (“IC50 … Donor 6” below) [3] of the same binder?
**A.** 6.56 nM

B2: 6F3A (antibody, V domains shown)
VH: EVQLQQSGAELVKPGASVKLSCTASGFNIKDTYVHWVKQRPDQGLEWIGRIDPAIGNTKYDPKFRGKATITADSSSNTAYLQLSSLTSEDTAVYYCARLSYGNYGLDYSMDYWGQGTSVTVSS
VL: DIVLTQSPATLSVTPGDSVSLSCRASQSITNNLHWYQQKSHESPRLLIKYASQSISGIPSRFRGSGSGTDFTLSINSVETEDFGVYFCQQSNTWPRTFGGGTKLEIKR
notes: Mouse anti-OSCAR mAb
**Q.** What does the source list for B2?
**A.** binding of OSCAR-ECD to collagen I with 10 µg/mL mAb [1]: 9.5; binding of OSCAR-ECD to collagen II with 10 µg/mL mAb [2]: 13.8; IC50 (IL-8), ColI-induced IL-8 release from moDC, Donor 4 [3]: 0.69 nM; IC50 (IL-8), ColI-induced IL-8 release from moDC, Donor 5 [3]: > 20 nM; IC50 (IL-8), ColI-induced IL-8 release from moDC, Donor 6 [3]: 8.06 nM

B3: 16F119 (antibody, V domains shown)
VH: QVQLVQSGAEVKKPGSSVKVSCKVSGGTFSNYAISWVRQAPGQGLEWMGRIIPILGIAAYAQRFRDRVTITADKFTSTVYMELSSLRSEDTAVYYCASGQLGTPYWYFDLWGRGTLVTVSS
VL: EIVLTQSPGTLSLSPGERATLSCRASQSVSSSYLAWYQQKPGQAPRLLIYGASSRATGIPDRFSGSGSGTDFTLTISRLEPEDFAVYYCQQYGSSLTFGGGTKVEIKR
notes: Fully human mAb from HuMab mice; also called 16F119 (Hu); 16F119A5
**Q.** B3 was tested. Which “binding of OSCAR-ECD to collagen I with 10 µg/mL mAb” value [1] did it give?
**A.** -3.4

**Q.** And the “binding of OSCAR-ECD to collagen II” value [2]?
**A.** -1.5

**Q.** What about the “IC50 … Donor 4” value [3] of the same binder?
**A.** 0.02 nM

**Q.** What about the “IC50 … Donor 5” value [3] of the same binder?
**A.** 0.46 nM

**Q.** And the “IC50 … Donor 6” value [3]?
**A.** 1.12 nM

**Q.** What about the Kd [4] of the same binder?
**A.** 0.5 nM

B4: 16F56 (antibody, V domains shown)
VH: QVQLVQSGAEVKKPGSSVKVSCKASGGTFSNYAISWVRQAPGQGLEWMGRIIPILGIAHNAQKFQDRVTITADKSTSTAYMELSSLRSEDTAVYYCASPSSGKGLPYWFFDLWGRGTLVTVSS
VL: DIQMTQSPSFLSASVGDRVTITCRASQSISSYLNWYQQKPGKAPKLLIYAASSLQSGVPSRFSGSGSGTDFTLTISSLQPEDFATYYCQCGYSTPLTFGGGTKVEIKR
notes: Fully human mAb from HuMab mice; also called 16F56 (Hu); 16F56A2
**Q.** How did the “binding of OSCAR-ECD to collagen I with 10 µg/mL mAb” value [1] turn out when B4 was run?
**A.** -3.2

**Q.** What about the “binding of OSCAR-ECD to collagen II” value [2] of the same binder?
**A.** -1.9

**Q.** And the “IC50 … Donor 4” value [3]?
**A.** 0.06 nM

**Q.** What about the “IC50 … Donor 5” value [3] of the same binder?
**A.** 0.1 nM

**Q.** And the “IC50 … Donor 6” value [3]?
**A.** 0.21 nM

**Q.** What about the Kd [4] of the same binder?
**A.** 0.3 nM
